Laboratory results: doi:10.1101/2020.09.10.290023

Key:
[1] = target: Donor-labeled tetramerization domain (TD) of p53 with AviTag (Avi-D-TD); assay: FRET or BRET
[2] = target: Donor (Alexa 488)-labeled, biotinylated Avi-C-Aβ42 (Avi-D-Aβ42) (UniProt P05067); assay: FRET or BRET

Row | stoichiometry N [1] | Kd [2] [µM] | stoichiometry N [2] | Substance
1 | 4 |  |  | Acceptor-labeled tetramerization domain (TD) of p53 (TD-A) (domain or fragment)
2 |  | 240 | > 10 | Acceptor (Alexa 594)-labeled C-Aβ42 (A-Aβ42) (from UniProt P05067 672-713) (peptide)
